{"source": "the supplement of paper PMC6379048", "assay_in_all_cases": "EC50 of free RNA motif oligo competing protein binding to immobilised probe", "key": {"TSNAX": {"target": "T1, TSNAX (UniProt Q99598)", "T1 sequence": "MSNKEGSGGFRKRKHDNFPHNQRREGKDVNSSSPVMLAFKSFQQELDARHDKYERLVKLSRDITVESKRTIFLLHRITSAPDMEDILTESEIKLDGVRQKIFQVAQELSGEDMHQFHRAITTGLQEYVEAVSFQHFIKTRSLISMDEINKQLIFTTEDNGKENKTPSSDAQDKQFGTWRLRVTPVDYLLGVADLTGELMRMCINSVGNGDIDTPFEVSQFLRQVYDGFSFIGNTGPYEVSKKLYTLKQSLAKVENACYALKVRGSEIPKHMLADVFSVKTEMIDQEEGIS", "summary_of_the_method": "(§1)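 HEK293-FT lysate (2.5 mg protein/well) was treated with free RNA oligos (0 nM to 30 μM) for 1 h at 4°C, then with the same oligos on NHS-Sepharose beads for 30 min at 4°C. Bound proteins were quantified by label-free LC-MS/MS relative to the control. EC50 came from a four-parameter log-logistic fit, and Kd is EC50 times a protein-dependent depletion factor.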"}, "SF3B2": {"target": "T2, SF3B2 (UniProt Q13435)", "T2 sequence": "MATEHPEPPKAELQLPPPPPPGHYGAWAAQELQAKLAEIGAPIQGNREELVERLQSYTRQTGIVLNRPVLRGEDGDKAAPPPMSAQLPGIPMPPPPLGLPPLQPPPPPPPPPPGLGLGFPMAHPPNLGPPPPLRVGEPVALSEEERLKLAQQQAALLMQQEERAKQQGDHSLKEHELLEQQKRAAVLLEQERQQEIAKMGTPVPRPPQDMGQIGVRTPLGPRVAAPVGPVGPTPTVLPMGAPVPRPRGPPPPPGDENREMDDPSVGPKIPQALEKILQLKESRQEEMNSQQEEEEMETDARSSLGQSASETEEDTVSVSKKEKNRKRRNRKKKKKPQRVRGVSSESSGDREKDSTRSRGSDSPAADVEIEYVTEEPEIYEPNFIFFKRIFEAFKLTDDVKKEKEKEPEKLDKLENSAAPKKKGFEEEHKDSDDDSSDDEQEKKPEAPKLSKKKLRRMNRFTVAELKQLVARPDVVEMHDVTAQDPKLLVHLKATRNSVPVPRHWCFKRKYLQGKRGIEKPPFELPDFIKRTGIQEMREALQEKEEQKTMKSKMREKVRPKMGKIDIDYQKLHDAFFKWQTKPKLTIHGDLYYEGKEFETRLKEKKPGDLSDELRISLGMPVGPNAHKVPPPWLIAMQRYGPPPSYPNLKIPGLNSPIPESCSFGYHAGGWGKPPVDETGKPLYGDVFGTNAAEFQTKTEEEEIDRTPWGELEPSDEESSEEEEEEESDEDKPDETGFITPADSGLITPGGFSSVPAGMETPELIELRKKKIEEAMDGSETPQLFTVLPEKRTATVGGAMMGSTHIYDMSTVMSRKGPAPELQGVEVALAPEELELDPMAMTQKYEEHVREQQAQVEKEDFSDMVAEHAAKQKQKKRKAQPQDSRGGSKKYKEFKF", "summary_of_the_method": "as §1"}, "GPALPP1": {"target": "T3, GPALPP1 (UniProt Q8IXQ4)", "T3 sequence": "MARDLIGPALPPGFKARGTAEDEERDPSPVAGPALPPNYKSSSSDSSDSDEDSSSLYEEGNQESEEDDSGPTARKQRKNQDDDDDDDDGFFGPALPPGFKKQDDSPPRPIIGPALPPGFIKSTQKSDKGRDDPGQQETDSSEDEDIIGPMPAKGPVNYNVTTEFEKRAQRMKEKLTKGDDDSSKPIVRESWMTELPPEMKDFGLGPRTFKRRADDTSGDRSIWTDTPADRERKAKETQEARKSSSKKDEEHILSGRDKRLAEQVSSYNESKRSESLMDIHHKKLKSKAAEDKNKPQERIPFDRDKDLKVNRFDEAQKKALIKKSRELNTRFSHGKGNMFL", "summary_of_the_method": "as §1"}, "ANGEL2": {"target": "T4, ANGEL2 (UniProt Q5VTE6)", "T4 sequence": "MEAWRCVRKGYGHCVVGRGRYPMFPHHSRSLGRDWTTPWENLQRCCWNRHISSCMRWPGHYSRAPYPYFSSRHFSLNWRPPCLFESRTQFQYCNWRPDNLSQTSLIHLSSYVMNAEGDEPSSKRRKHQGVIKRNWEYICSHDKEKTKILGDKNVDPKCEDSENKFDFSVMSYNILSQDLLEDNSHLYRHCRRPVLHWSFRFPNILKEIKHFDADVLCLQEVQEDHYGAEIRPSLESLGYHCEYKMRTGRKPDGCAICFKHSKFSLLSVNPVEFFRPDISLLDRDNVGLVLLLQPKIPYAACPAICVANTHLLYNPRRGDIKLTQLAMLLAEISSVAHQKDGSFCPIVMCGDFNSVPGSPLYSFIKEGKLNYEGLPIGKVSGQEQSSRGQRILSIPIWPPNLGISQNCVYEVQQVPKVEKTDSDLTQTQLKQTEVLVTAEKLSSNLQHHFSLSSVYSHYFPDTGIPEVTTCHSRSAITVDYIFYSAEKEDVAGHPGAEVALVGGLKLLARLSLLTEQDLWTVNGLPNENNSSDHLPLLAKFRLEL", "summary_of_the_method": "as §1"}, "MRPL19": {"target": "MRPL19 (UniProt P49406)", "summary_of_the_method": "as §1"}, "MRPL22": {"target": "MRPL22 (UniProt Q9NWU5)", "summary_of_the_method": "as §1"}, "RPS5": {"target": "RPS5 (UniProt P46782)", "summary_of_the_method": "as §1"}, "MRPS2": {"target": "MRPS2 (UniProt Q9Y399)", "summary_of_the_method": "as §1"}}, "data": [{"sequence": "AAUAAA", "values": [{"measurement": "EC50", "setting": "TSNAX", "value": 30.5, "unit": "nM"}, {"measurement": "EC50", "setting": "SF3B2", "value": 1180, "unit": "nM"}, {"measurement": "EC50", "setting": "GPALPP1", "value": 33.8, "unit": "nM"}]}, {"sequence": "CUGUCCU", "values": [{"measurement": "EC50", "setting": "ANGEL2", "value": 504, "unit": "nM"}, {"measurement": "EC50", "setting": "MRPL19", "value": 136, "unit": "nM"}, {"measurement": "EC50", "setting": "MRPL22", "value": 98.4, "unit": "nM"}, {"measurement": "EC50", "setting": "RPS5", "value": 303, "unit": "nM"}]}, {"sequence": "UAUUUAU", "values": [{"measurement": "EC50", "setting": "MRPS2", "value": 29.1, "unit": "nM"}]}]}
